Test results from article PMC6589562.

Target: spoke HSP40 (His-tagged recombinant HSP40) (Chlamydomonas reinhardtii)
Assay: AUC

With “spoke HSP40 (His-tagged recombinant HSP40) (natural protein)” as the substance, how does the stoichiometry N read?
The stoichiometry N was 2.
